Literature values, collected in paper PMC7294136.

What was measured:
[1] = molecular target: RAGE (Homo sapiens) (UniProt Q15109); assay: SPR
[2] = molecular target: RAGE V domain (Homo sapiens) (UniProt Q15109)

Row | Kd [1] | Kd [2] | Substance
1 | 138 nM | – | S100A4 (from UniProt P26447)
2 | – | 500 nM | S100B (from UniProt P04271)
